From patent US20200157212A1 (Pfizer, published 2020)

What was measured:
Human ROBO2 Ig1-Ig2-His [1] = target: T1, Human ROBO2 Ig1-Ig2-His (human, UniProt Q9HCK4 31-220); assay: Octet (BLI)
T1 construct: the His tag is named only in the SPR paragraphs; the Octet and ELISA paragraphs print 'ROBO2 Ig1-Ig2' without a tag; also called ROBO2 Ig1-2; Human ROBO2 Ig 1,2
T1 sequence: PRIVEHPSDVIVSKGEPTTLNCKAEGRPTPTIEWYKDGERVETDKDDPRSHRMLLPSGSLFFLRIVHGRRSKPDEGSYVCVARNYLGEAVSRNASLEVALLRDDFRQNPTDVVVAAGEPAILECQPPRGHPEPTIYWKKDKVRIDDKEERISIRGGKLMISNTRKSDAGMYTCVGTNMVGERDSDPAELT

Human ROBO2 Ig1-Ig2-His [2] = target: T1, Human ROBO2 Ig1-Ig2-His; assay: Octet and SPR, against the parental antibody
[3] = target: T2, Human ROBO2 KSR mutant overexpressed on HEK293 cells (human, UniProt Q9HCK4 22-1378); assay: flow cytometry on HEK293 cells overexpressing the ROBO2-KSR mutant
T2 construct: R100K and K102R already in the entry
T2 sequence: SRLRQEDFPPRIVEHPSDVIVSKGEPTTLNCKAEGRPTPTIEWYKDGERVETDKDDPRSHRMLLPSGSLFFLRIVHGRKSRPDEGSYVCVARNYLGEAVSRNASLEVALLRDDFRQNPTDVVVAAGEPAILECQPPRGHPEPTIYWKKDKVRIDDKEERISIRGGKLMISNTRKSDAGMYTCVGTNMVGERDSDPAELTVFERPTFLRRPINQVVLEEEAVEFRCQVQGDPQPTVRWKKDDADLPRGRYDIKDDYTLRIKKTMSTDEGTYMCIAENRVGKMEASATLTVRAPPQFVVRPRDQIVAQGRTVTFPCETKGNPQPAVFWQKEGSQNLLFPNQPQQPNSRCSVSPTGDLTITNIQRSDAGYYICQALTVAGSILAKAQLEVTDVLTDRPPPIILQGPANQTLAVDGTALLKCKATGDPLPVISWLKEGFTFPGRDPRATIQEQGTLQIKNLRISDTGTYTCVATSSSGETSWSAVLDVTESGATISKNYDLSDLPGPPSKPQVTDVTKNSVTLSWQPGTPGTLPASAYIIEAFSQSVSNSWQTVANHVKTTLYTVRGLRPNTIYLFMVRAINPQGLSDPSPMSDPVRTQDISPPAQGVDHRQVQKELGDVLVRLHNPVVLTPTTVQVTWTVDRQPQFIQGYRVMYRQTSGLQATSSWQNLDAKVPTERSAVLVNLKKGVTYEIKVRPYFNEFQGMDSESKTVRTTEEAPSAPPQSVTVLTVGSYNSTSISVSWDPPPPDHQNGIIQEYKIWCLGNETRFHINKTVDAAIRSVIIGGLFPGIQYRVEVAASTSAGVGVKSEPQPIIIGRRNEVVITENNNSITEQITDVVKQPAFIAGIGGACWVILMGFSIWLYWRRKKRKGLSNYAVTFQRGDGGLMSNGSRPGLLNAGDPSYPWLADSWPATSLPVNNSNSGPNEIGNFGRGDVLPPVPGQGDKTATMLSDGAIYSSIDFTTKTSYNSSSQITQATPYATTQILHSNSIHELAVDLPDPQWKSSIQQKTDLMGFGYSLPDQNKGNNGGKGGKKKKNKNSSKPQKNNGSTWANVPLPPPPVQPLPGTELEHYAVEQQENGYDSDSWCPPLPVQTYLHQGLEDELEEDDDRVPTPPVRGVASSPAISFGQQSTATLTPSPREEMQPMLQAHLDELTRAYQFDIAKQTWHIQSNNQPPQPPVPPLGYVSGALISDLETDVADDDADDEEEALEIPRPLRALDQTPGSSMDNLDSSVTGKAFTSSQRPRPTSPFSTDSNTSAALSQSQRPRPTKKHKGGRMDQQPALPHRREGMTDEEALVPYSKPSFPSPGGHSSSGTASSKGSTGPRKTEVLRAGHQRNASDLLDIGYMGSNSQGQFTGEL
Experimental: The binding profile of Abcs35-J compared to Abcs35 was determined for human ROBO2, orthologs from cynomolgus monkey and rat, human ROBO1 and specificity for the RSK epitope from ROBO2 but not KSR from ROBO1. Binding was assessed by flow cytometry as described in Examples 2 (homolog specificity), Example 3 (ortholog reactivity) and Example 5 (RSK vs KSR epitope specificity). […] Binding of the antibodies was detected using a secondary fluorochrome conjugated anti-human IgG F(ab′)₂ antibody and samples analyzed on a Fortessa cytometer (BD Biosciences). […] FIGS. 16A-16F depicts binding profiles of Abcs35 (black circles) or Abcs35-J (grey squares) to human ROBO2 (FIG. 16A), cynomolgus monkey ROBO2 (FIG. 16B), rat ROBO2 (FIG. 16C), human ROBO1 (FIG. 16D), ROBO1 containing the ROBO2 RSK epitope (FIG. 16E) or ROBO2 containing the ROBO1 KSR epitope (FIG. 16 F).

B1: 93H2 (antibody, human IgG1, kappa, V domains shown)
VH: EVQLVQSGAEVKKPGASVKVSCKASGYTFTGYYMHWVRQAPGQGLEWMGWINPNSGATNFPQKFQGRVTMTRDTSITTAYMDLSRLRSDDTAVYYCARESGDDAFDIWGQGTMVTVSS
VL: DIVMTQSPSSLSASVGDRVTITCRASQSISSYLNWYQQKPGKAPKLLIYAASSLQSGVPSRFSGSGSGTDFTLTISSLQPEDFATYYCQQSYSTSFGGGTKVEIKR
notes: also called parental 93H2; 93H2 mAb
B1 showed a Kd (Human ROBO2 Ig1-Ig2-His [1]) of 37 nM.

B2: Abcs35 (antibody, human IgG1, kappa)
heavy: EVQLVQSGAEVKKPGASVKVSCKASGYTFTGYYMHWVRQAPGQGLEWMGWINPKNGDTEFPQKFQGRVTMTRDTSITTAYMDLSRLRSDDTAVYYCARESGDDAFDIWGQGTMVTVSSASTKGPSVFPLAPSSKSTSGGTAALGCLVKDYFPEPVTVSWNSGALTSGVHTFPAVLQSSGLYSLSSVVTVPSSSLGTQTYICNVNHKPSNTKVDKKVEPKSCDKTHTCPPCPAPEAAGAPSVFLFPPKPKDTLMISRTPEVTCVVVDVSHEDPEVKFNWYVDGVEVHNAKTKPREEQYNSTYRVVSVLTVLHQDWLNGKEYKCKVSNKALPAPIEKTISKAKGQPREPQVYTLPPSREEMTKNQVSLTCLVKGFYPSDIAVEWESNGQPENNYKTTPPVLDSDGSFFLYSKLTVDKSRWQQGNVFSCSVMHEALHNHYTQKSLSLSPGK
light: DIVMTQSPSSLSASVGDRVTITCRASQSISSYLNWYQQKPGKAPKLLIYAASSLQSGVPSRFSGSGSGTDFTLTISSLQPEDFATYYCQQSVGLFFGGGTKVEIKRTVAAPSVFIFPPSDEQLKSGTASVVCLLNNFYPREAKVQWKVDNALQSGNSQESVTEQDSKDSTYSLSSTLTLSKADYEKHKVYACEVTHQGLSSPVTKSFNRGEC
notes: fully human IgG1; VH of Ab96 with VL of Ab123
Work on B2 yielded a fold affinity improvement (Human ROBO2 Ig1-Ig2-His [2]) of roughly 300 fold.

B3: Abcs35-J (antibody, human IgG1, kappa)
heavy: EVQLVQSGAEVKKPGASVKVSCKASGYTFTGYYMHWVRQAPGQGLEWMGWINPKNGDTEFPQKFQGRVTMTRDTSITTAYMELSRLRSDDTAVYYCARESGDDAFDIWGQGTMVTVSSASTKGPSVFPLAPSSKSTSGGTAALGCLVKDYFPEPVTVSWNSGALTSGVHTFPAVLQSSGLYSLSSVVTVPSSSLGTQTYICNVNHKPSNTKVDKKVEPKSCDKTHTCPPCPAPEAAGAPSVFLFPPKPKDTLMISRTPEVTCVVVDVSHEDPEVKFNWYVDGVEVHNAKTKPREEQYNSTYRVVSVLTVLHQDWLNGKEYKCKVSNKALPAPIEKTISKAKGQPREPQVYTLPPSREEMTKNQVSLTCLVKGFYPSDIAVEWESNGQPENNYKTTPPVLDSDGSFFLYSKLTVDKSRWQQGNVFSCSVMHEALHNHYTQKSLSLSPGK
light: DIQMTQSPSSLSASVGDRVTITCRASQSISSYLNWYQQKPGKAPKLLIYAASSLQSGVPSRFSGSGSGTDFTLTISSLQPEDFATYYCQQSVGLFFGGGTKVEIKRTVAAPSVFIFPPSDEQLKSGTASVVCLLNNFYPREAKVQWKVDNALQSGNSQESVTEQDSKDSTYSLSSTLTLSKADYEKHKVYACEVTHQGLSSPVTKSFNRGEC
notes: germlined variant of Abcs35; also called ABCS-J
B3: no binding (tested: last point just below 10^1 nM) [3].
